Substitutions are numbered along the chain they refer to.
T1: human MSLN-R1-his protein (human, UniProt Q13421 296-390)
T1 construct: Made in HEK293E cells, purified on nickel column; also called hMSLN-R1-his; human MSLN-R1 protein; not shown: His tag
T1 chain: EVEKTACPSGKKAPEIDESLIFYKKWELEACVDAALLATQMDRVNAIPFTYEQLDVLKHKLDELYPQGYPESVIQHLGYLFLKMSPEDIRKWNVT

B1: S009-F7.26.15 chimeric antibody (antibody, human IgG1, kappa, V domains shown)
VH: DVQLQESGPGLVKPSQTVFLTCTVTGISITTGNYRWSWIRQFPGNKLEWIGYIYYTGFITYNPSLTSRTTITRDTPKNQFFLEMKSLTAEDTATYYCARDDYDYDVFAYWGQGTLVTVSA
VL: DIQMTQSPASLSASVGETVTITCRASGNIHNYLAWYHQKQGKSPQFLVYKAKTLADGVPSRFSGSGSGTQYSLKINRLQPEDFGSYYCQHFLSIPLTFGAGTKLELKR
notes: Human-murine chimeric antibody, human IgG1/kappa constant regions
B2: S009-F7.21.16 chimeric antibody (antibody, human IgG1, kappa, V domains shown)
VH: QVQLQQPGTELVKPGASVKLSCKASGYTFTTFWMHWVKQRPGQGLEWIGGVNPTNGGTNYNEKFRTKATLTVDKSSTTADMQLSSLTSEDSAVYYCAPHYISSRPGFAYWGQGTLVTVSG
VL: DIVMTQSQKFMSTSGGDRVSVTCKASQNVGTNVAWYQQKPGQSPKALIYSASYRYSGVPDRFTGSGSGTDFILTISNVQSEDLAEYFCQQYNSYPLTFGGGTKLEIKR
notes: as for B1
B3: S009-F7.33.24 chimeric antibody (antibody, human IgG1, kappa, V domains shown)
VH: B2 VH with T31S, F32Y, G50N, T54S, T58S, R65K, T66N, T77S, S84N, S102G
VL: B2 VL with G15V, V33I, I72T, S76T, L104V
notes: as for B1
B4: S009-F7.30.5 chimeric antibody (antibody, human IgG1, kappa, V domains shown)
VH: QVQLQQPKTELVKPGASVKLSCKASGYIFTTYWMHWVKQRPGQGLEWIGNVNPSNGGTMYNEKFERRATLTVDKSSSTADMQLSSLTSEDSAVYYCVPHYIGSRPGFAYWGQGTLVTVSG
VL: B2 VL with G15V, Q38H, I48L, I72T, S76T
notes: as for B1
B5: S009-F7.23.19 chimeric antibody (antibody, human IgG1, kappa, V domains shown)
VH: EVKLVESGGGLVQPGGSLSLSCAASGFTFTDYYMSWVRQPPGKALEWLGFIRSKANAYTTEYSASVKGRFTISRDNSQSILYLQMNDLRAEDSATYYCARYYYYGSGYVWYFDVWGTGTTVTVSS
VL: B2 VL with G15V, N28S, S43F, I72T, S76I, G100A, I106L
notes: as for B1
B6: S009-F7.48.1 chimeric antibody (antibody, human IgG1, kappa, V domains shown)
VH: QVQLQQPGTELVKPGASVKLSCKASGYTFTSYWMHWVKQRPGQGLEWIGNINPSNGGTNNNENFKSKATLTVDTSSSTAYMQLSSLTSEDSAVYYCVRNGYHGYWYFDVWGTGTTVTVSS
VL: B2 VL with G15V, K39Q, G66V, I72T
notes: as for B1
B7: S009-F7.44.20 chimeric antibody (antibody, human IgG1, kappa, V domains shown)
VH: EVQLQQSGPELVKPGASVKIPCKASGYTFTDYNMDWVKQSHGKSLEWIGDINPSTGGTIYNQKFNGKATLTEDKSASTVYMEFRSLTSDDTAVYYCARRRIGTGYFDVWGTGTTVTVSS
VL: QIVLTQSPALMSASPGEKVTLTCSASSSVISSYLSWYQQKPGSSPKLLIYRTSNLASGVPARFSGSGSGTSYSLTISSMEAEDAASYFCHQWSSFPYTFGGGTKLEIKR
notes: as for B1
B8: S009-F7.18.10 chimeric antibody (antibody, human IgG1, kappa, V domains shown)
VH: QVQLQQSGAELVRPGTSVKVSCKASGYAFTNYLIEWVKQRPGQGLEWIGVINPGSGGTKYNEKFKGKATLTADKSSSTAYMQLSSLTSEDSAVYFCASDYDYDPFAYWGQGTLVTVSA
VL: DIVMTQSHKFMSTSVGDRVSITCKASQDVSTAVAWYQRKPGQSPKLLIYWASTRHTGVPDRFTGSGSGTDYTLTISYMQAEDLALYYCQQHYSTPYTFGGGTKLEIKR
notes: as for B1
B9: S009-F7.41.18 chimeric antibody (antibody, human IgG1, kappa, V domains shown)
VH: QVQLQQPGTELVKPGASVKLSCKASDYTFTSYWMHWVKQRPGQGLEWIGSINPSNGDTYYNEKFKNKATLTVDKSSSTAYMQLSSLTSDDSAVYYCARGWYFDVWGTGTTVTVSS
VL: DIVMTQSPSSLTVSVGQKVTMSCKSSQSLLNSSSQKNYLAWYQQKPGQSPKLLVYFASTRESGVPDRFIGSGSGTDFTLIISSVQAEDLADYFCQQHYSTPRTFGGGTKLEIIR
notes: as for B1

Target: T2, human MSLN-FL-his protein (human, UniProt Q13421 296-580)
T2 construct: Made in HEK293E cells, purified on nickel column; also called hMSLN-FL-his; human MSLN full-length protein; not shown: His tag
Assay: ELISA, coated antigen, antibody 2 nM

| Binder | OD450 |
| --- | --- |
| B1 | 2.43 |
| B2 | 2.31 |
| B3 | 2.54 |
| B4 | 2.41 |
| B5 | 2.4 |
| B6 | 2.12 |
| B7 | 2.24 |
| B8 | 2.28 |
| B9 | 2.26 |

Target: T1, human MSLN-R1-his protein
Assay: ELISA, coated antigen, antibody 2 nM
Experimental: (§1) The plate was sealed with a plastic film and incubated at 4° C. overnight. The next day, the plate was washed twice with PBST, and a blocking buffer [PBS+2% (w/w) BSA] was added for blocking at room temperature for 2 h. The blocking buffer was discarded, and a chimeric antibody or negative control antibody serially diluted from 100 nM was added at 50 μL/well. After incubation at 37° C. for 2 h, the plate was washed 3 times with PBST. […] After incubation at 37° C. for 2 h, the plate was washed 5 times with PBST. A TMB substrate was added at 50 μL/well for incubation at room temperature for 5-10 min, and then a stop solution (1.0 N HCl) was added at 50 μL/well.

| Binder | OD450 |
| --- | --- |
| B1 | 0.05 |
| B2 | 0.05 |
| B3 | 0.06 |
| B4 | 0.06 |
| B5 | 0.05 |
| B6 | 0.04 |
| B7 | 0.04 |
| B8 | 2.45 |
| B9 | 0.06 |

Target: T2, human MSLN-FL-his protein
Assay: ELISA, coated antigen, antibody 20 nM

| Binder | OD450 |
| --- | --- |
| B1 | 2.52 |
| B2 | 2.46 |
| B3 | 2.53 |
| B4 | 2.43 |
| B5 | 2.46 |
| B6 | 2.21 |
| B7 | 2.21 |
| B8 | 2.29 |
| B9 | 2.24 |

Target: T1, human MSLN-R1-his protein
Assay: ELISA, coated antigen, antibody 20 nM
Experimental: as §1

| Binder | OD450 |
| --- | --- |
| B1 | 0.06 |
| B2 | 0.06 |
| B3 | 0.08 |
| B4 | 0.1 |
| B5 | 0.05 |
| B6 | 0.05 |
| B7 | 0.05 |
| B8 | 2.45 |
| B9 | 0.07 |

Target: T2, human MSLN-FL-his protein
Assay: ELISA, coated antigen, antibody 0.2 nM
Experimental: as §1

| Binder | OD450 |
| --- | --- |
| B1 | 2.33 |
| B2 | 2.15 |
| B3 | 2.6 |
| B4 | 2.39 |
| B5 | 2.22 |
| B6 | 1.87 |
| B7 | 2.26 |
| B8 | 2.33 |
| B9 | 2.04 |

Target: T2, human MSLN-FL-his protein
Assay: ELISA, coated antigen, antibody 200 nM

| Binder | OD450 |
| --- | --- |
| B1 | 2.39 |
| B2 | 2.42 |
| B3 | 2.48 |
| B4 | 2.36 |
| B5 | 2.5 |
| B6 | 2.62 |
| B7 | 2.36 |
| B8 | 2.4 |
| B9 | 2.3 |

Target: T1, human MSLN-R1-his protein
Assay: ELISA, coated antigen, antibody 0.2 nM
Experimental: as §1

| Binder | OD450 |
| --- | --- |
| B1 | 0.05 |
| B2 | 0.05 |
| B3 | 0.05 |
| B4 | 0.05 |
| B5 | 0.05 |
| B6 | 0.04 |
| B7 | 0.04 |
| B8 | 2.46 |
| B9 | 0.06 |

Target: T1, human MSLN-R1-his protein
Assay: ELISA, coated antigen, antibody 200 nM
Experimental: as §1

| Binder | OD450 |
| --- | --- |
| B1 | 0.12 |
| B2 | 0.17 |
| B3 | 0.15 |
| B4 | 0.32 |
| B5 | 0.08 |
| B6 | 0.07 |
| B7 | 0.07 |
| B8 | 2.77 |
| B9 | 0.09 |

Target: T2, human MSLN-FL-his protein
Assay: ELISA, coated antigen, antibody 0.02 nM

| Binder | OD450 |
| --- | --- |
| B1 | 1.76 |
| B2 | 1.39 |
| B3 | 2.01 |
| B4 | 1.77 |
| B5 | 1.32 |
| B6 | 0.86 |
| B7 | 1.82 |
| B8 | 1.91 |
| B9 | 1 |

Target: T1, human MSLN-R1-his protein
Assay: ELISA, coated antigen, antibody 0.02 nM
Experimental: as §1

| Binder | OD450 |
| --- | --- |
| B1 | 0.05 |
| B2 | 0.05 |
| B3 | 0.06 |
| B4 | 0.05 |
| B5 | 0.05 |
| B6 | 0.04 |
| B7 | 0.04 |
| B8 | 2.05 |
| B9 | 0.05 |

Target: T2, human MSLN-FL-his protein
Assay: ELISA, coated antigen, antibody 0.002 nM
Experimental: as §1

| Binder | OD450 |
| --- | --- |
| B1 | 0.91 |
| B2 | 0.82 |
| B3 | 1.06 |
| B4 | 0.96 |
| B5 | 0.41 |
| B6 | 0.24 |
| B7 | 0.93 |
| B8 | 0.97 |
| B9 | 0.25 |

Target: T1, human MSLN-R1-his protein
Assay: ELISA, coated antigen, antibody 0.002 nM
Experimental: as §1

| Binder | OD450 |
| --- | --- |
| B1 | 0.05 |
| B2 | 0.05 |
| B3 | 0.06 |
| B4 | 0.05 |
| B5 | 0.05 |
| B6 | 0.04 |
| B7 | 0.04 |
| B8 | 1.17 |
| B9 | 0.06 |

Target: T2, human MSLN-FL-his protein
Assay: ELISA, coated antigen, antibody 0.0002 nM
Experimental: as §1

| Binder | OD450 |
| --- | --- |
| B1 | 0.25 |
| B2 | 0.35 |
| B3 | 0.26 |
| B4 | 0.36 |
| B5 | 0.11 |
| B6 | 0.09 |
| B7 | 0.26 |
| B8 | 0.31 |
| B9 | 0.08 |

Target: T1, human MSLN-R1-his protein
Assay: ELISA, coated antigen, antibody 0.0002 nM
Experimental: as §1

| Binder | OD450 |
| --- | --- |
| B1 | 0.04 |
| B2 | 0.04 |
| B3 | 0.06 |
| B4 | 0.05 |
| B5 | 0.05 |
| B6 | 0.04 |
| B7 | 0.04 |
| B8 | 0.38 |
| B9 | 0.06 |

Target: T2, human MSLN-FL-his protein
Assay: ELISA, coated antigen, no antibody (blank)
Experimental: as §1

| Binder | OD450 |
| --- | --- |
| B1 | 0.06 |
| B2 | 0.08 |
| B3 | 0.06 |
| B4 | 0.06 |
| B5 | 0.06 |
| B6 | 0.06 |
| B7 | 0.06 |
| B8 | 0.07 |
| B9 | 0.06 |

Target: T1, human MSLN-R1-his protein
Assay: ELISA, coated antigen, no antibody (blank)
Experimental: as §1

| Binder | OD450 |
| --- | --- |
| B1 | 0.06 |
| B2 | 0.07 |
| B3 | 0.06 |
| B4 | 0.06 |
| B5 | 0.06 |
| B6 | 0.06 |
| B7 | 0.06 |
| B8 | 0.08 |
| B9 | 0.06 |

From patent publication US20250250357A1 (NANJING ZAIMING PHARMACEUTICAL, published 2025)
